Target: eIF2 trimer (recombinant, not phosphorylated), P05198;P20042;P41091
Assay: fluorescence polarisation
Settings: chain shown with the change; 2.0 µM eIF2 trimer (highest analyte concentration); fluorescein-labeled R3 420-466 peptide as probe; parent: est. 90; read off a plot

eIF2 trimer (recombinant, not phosphorylated), P05198;P20042;P41091, sequence (chain, as listed by the source, chain 1 of 3): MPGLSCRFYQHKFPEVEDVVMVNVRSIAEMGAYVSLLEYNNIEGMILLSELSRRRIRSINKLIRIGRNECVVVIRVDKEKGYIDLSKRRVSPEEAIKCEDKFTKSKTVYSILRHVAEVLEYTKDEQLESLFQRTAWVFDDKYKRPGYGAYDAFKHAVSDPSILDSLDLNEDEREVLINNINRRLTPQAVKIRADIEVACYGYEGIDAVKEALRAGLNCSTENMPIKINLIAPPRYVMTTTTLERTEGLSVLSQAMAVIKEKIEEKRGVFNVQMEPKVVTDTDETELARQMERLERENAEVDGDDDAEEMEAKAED
eIF2 trimer (recombinant, not phosphorylated), P05198;P20042;P41091, sequence (chain, as listed by the source, chain 2 of 3): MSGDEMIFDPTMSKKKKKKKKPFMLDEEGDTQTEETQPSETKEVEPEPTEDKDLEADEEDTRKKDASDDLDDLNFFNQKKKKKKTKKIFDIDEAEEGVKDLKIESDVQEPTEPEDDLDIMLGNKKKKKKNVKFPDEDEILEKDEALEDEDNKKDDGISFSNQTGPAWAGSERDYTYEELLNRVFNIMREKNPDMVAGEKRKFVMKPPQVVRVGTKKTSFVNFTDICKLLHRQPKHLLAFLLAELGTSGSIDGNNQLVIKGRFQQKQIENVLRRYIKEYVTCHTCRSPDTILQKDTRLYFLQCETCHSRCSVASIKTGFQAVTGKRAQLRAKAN
eIF2 trimer (recombinant, not phosphorylated), P05198;P20042;P41091, sequence (chain, as listed by the source, chain 3 of 3): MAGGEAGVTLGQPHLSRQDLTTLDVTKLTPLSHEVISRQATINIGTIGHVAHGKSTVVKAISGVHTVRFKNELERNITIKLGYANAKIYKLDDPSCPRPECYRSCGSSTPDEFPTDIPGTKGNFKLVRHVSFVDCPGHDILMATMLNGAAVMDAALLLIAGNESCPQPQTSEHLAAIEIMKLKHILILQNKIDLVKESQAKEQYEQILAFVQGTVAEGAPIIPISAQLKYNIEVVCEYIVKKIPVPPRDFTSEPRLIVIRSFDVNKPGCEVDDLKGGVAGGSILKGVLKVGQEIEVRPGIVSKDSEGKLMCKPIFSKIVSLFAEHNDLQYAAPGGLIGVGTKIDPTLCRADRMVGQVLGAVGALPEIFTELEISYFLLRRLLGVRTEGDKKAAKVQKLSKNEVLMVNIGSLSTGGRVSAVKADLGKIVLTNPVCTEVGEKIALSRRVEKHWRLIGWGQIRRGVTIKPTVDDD

- response: 27 mP
Binder: ASTPPASAALKAAVYRPGEDTEEEEDEDVDSEDKEDDSEAALGEAES
